Test [1] deals with T1, EBV BRLF1 peptide on HLA-A*02:01 (human).
T1 peptide: YVLDHLIVV
The test is described as follows: activation reporter or marker.

The target in test [2] is T2, HERV-K gag protein peptide on HLA-A*02:01 (human).
T2 peptide: FLQFKTWWI
The experiment in a line: killing.

For test [3], the target named is T3, EBV BZLF1 peptide on HLA-B*35:01 (human).
T3 peptide: EPLPQGQLTAY
The test is described as follows: activation reporter or marker.

Test [4] deals with T4, EBV LMP2 peptide on HLA-A*02:01 (human).
T4 peptide: CLGGLLTMV
The experiment in a line: activation reporter or marker.

Test [5] deals with T5, EBV LMP2 (LMP2A) peptide on HLA-A*02:01 (human).
T5 peptide: MGSLEMVPM
The test is described as follows: activation reporter or marker.

Test [6] addresses T6, mutant splice factor-induced (SF3B1mut) splice variant of MAPK8IP2 peptide on HLA-A*02:01 (human).
T6 peptide: RLPGVLPRA
The experiment in a line: killing.

Test [7] concerns the target T6, mutant splice factor-induced (SF3B1mut) …. The experiment in a line: multimer staining.

B1: TCR_A0005 (TCR, V domains shown)
Valpha: AQKITQTQPGMFVQEKEAVTLDCTYDTSDQSYGLFWYKQPSSGEMIFLIYQGSYDEQNATEGRYSLNFQKARKSANLVISASQLGDSAMYFCAMREGGNFNKFYFGSGTKLNVKP
Vbeta: SAVISQKPSRDICQRGTSLTIQCQVDSQVTMMFWYRQQPGQSLTLIATANQGSEATYESGFVIDKFPISRPNLTFSTLTVSNMSPEDSSIYLCSVGGTSGTLPANEQFFGPGTRLTVL
As to B1, the binding result in test [1] is “recognises”.

B2: TCR_A0100 (TCR, V domains shown)
Valpha: KQEVTQIPAALSVPEGENLVLNCSFTDSAIYNLQWFRQDPGKGLTSLLLIQSSQREQTSGRLNASLDKSSGRSTLYIAASQPGDSATYLCAVGGNNNDMRFGAGTRLTVKP
Vbeta: AAGVIQSPRHLIKEKRETATLKCYPIPRHDTVYWYQQGPGQDPQFLISFYEKMQSDKGSIPDRFSAQQFSDYHSELNMSSLELGDSALYFCASSLINTEAFFGQGTRLTVV
B2: the binding result in test [2] was “recognises”.

B3: TCR_A0099 (TCR, V domains shown)
Valpha: ILNVEQSPQSLHVQEGDSTNFTCSFPSSNFYALHWYRWETAKSPEALFVMTLNGDEKKKGRISATLNTKEGYSYLYIKGSQPEDSATYLCAVNAGGTSYGKLTFGQGTILTVHP
Vbeta: EAGVAQSPRYKIIEKRQSVAFWCNPISGHATLYWYQQILGQGPKLLIQFQNNGVVDDSQLPKDRFSAERLKGVDSTLKIQPAKLEDSAVYLCASSSDWTANNEQFFGPGTRLTVL
As for B3, the binding result in test [3] is “recognises”.

B4: TCR_A0064 (TCR, V domains shown)
Valpha: GQQVMQIPQYQHVQEGEDFTTYCNSSTTLSNIQWYKQRPGGHPVFLIQLVKSGEVKKQKRLTFQFGEAKKNSSLHITATQTTDVGTYFCAGAGAGSYQLTFGKGTKLSVIP
Vbeta: KAGVTQTPRYLIKTRGQQVTLSCSPISGHRSVSWYQQTPGQGLQFLFEYFSETQRNKGNFPGRFSGRQFSNSRSEMNVSTLELGDSALYLCASSLEGQASSYEQYFGPGTRLTVT
Turning to B4, in test [4], the binding result was “recognises”.

B5: TCR_A0066 (TCR, V domains shown)
Valpha: GQQVMQIPQYQHVQEGEDFTTYCNSSTTLSNIQWYKQRPGGHPVFLIQLVKSGEVKKQKRLTFQFGEAKKNSSLHITATQTTDVGTYFCAGAGAGSYQLTFGKGTKLSVIP
Vbeta: KAGVTQTPRYLIKTRGQQVTLSCSPISGHRSVSWYQQTPGQGLQFLFEYFSETQRNKGNFPGRFSGRQFSNSRSEMNVSTLELGDSALYLCASSAEGQASSYEQYFGPGTRLTVT
As for B5, the binding result in test [4] was “recognises”.

B6: TCR_A0015 (TCR, V domains shown)
Valpha: AQSVTQLDSQVPVFEEAPVELRCNYSSSVSVYLFWYVQYPNQGLQLLLKYLSGSTLVKGINGFEAEFNKSQTSFHLRKPSVHISDTAEYFCAVSALSYNQGGKLIFGQGTELSVKP
Vbeta: DAGVIQSPRHEVTEMGQEVTLRCKPISGHNSLFWYRQTMMRGLELLIYFNNNVPIDDSGMPEDRFSAKMPNASFSTLKIQPSEPRDSAVYFCASSWTGNEQYFGPGTRLTVT
As for B6, the binding result in test [5] is reported as “recognises”.

B7: TCR_A0061 (TCR, V domains shown)
Valpha: KQEVTQIPAALSVPEGENLVLNCSFTDSAIYNLQWFRQDPGKGLTSLLLIQSSQREQTSGRLNASLDKSSGRSTLYIAASQPGDSATYLCAVLMDSNYQLIWGAGTKLIIKP
Vbeta: DAGITQSPRYKITETGRQVTLMCHQTWSHSYMFWYRQDLGHGLRLIYYSAAADITDKGEVPDGYVVSRSKTENFPLTLESATRSQTSVYFCASSSDGMNTEAFFGQGTRLTVV
For the molecule B7, in test [4], the binding result was “recognises”.

B8: TCR_A0131 (TCR, V domains shown)
Valpha: AQTVTQSQPEMSVQEAETVTLSCTYDTSENNYYLFWYKQPPSRQMILVIRQEAYKQQNATENRFSVNFQKAAKSFSLKISDSQLGDTAMYFCAFMLIDSGTYKYIFGTGTRLKVLA
Vbeta: EAQVTQNPRYLITVTGKKLTVTCSQNMNHEYMSWYRQDPGLGLRQIYYSMNVEVTDKGDVPEGYKVSRKEKRNFPLILESPSPNQTSLYFCASSLGQGTETQYFGPGTRLLVL
Turning to B8, the binding result in test [6] is reported as “recognises”.

B9: TCR_A0358 (TCR, V domains shown)
Valpha: AQTVTQSQPEMSVQEAETVTLSCTYDTSENNYYLFWYKQPPSRQMILVIRQEAYKQQNATENRFSVNFQKAAKSFSLKISDSQLGDTAMYFCAFMGPDSGTYKYIFGTGTRLKVLA
Vbeta: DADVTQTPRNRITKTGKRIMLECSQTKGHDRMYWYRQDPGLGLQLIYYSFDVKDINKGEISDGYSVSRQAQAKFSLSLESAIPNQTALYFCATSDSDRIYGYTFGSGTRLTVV
As to B9, the binding result in test [7] was “recognises”.

B10: TCR_A0001 (TCR, V domains shown)
Valpha: AQSVSQHNHHVILSEAASLELGCNYSYGGTVNLFWYVQYPGQHLQLLLKYFSGDPLVKGIKGFEAEFIKSKFSFNLRKPSVQWSDTAEYFCAVKDTDKLIFGTGTRLQVFP
Vbeta: not shown
Consider B10, for which the binding result in test [1] is “recognises”.

B11: TCR_A0004 (TCR, V domains shown)
Valpha: AQSVSQHNHHVILSEAASLELGCNYSYGGTVNLFWYVQYPGQHLQLLLKYFSGDPLVKGIKGFEAEFIKSKFSFNLRKPSVQWSDTAEYFCAVKDTDKLIFGTGTRLQVFP
Vbeta: not shown
As for B11, in test [1], the binding result is recorded as “recognises”.

B12: TCR_A0002 (TCR, V domains shown)
Valpha: AQSVSQHNHHVILSEAASLELGCNYSYGGTVNLFWYVQYPGQHLQLLLKYFSGDPLVKGIKGFEAEFIKSKFSFNLRKPSVQWSDTAEYFCAVKDTDKLIFGTGTRLQVFP
Vbeta: DTAVSQTPKYLVTQMGNDKSIKCEQNLGHDTMYWYKQDSKKFLKIMFSYNNKELIINETVPNRFSPKSPDKAHLNLHINSLELGDSAVYFCASSPDFNEQFFGPGTRLTVL
With B12, in test [1], the binding result is “recognises”.

B13: TCR_A0130 (TCR, V domains shown)
Valpha: AQTVTQSQPEMSVQEAETVTLSCTYDTSESNYYLFWYKQPPSRQMILVIRQEAYKQQNATENRFSVNFQKAAKSFSLKISDSQLGDTAMYFCAFMIPDSNYQLIWGAGTKLIIKP
Vbeta: ETGVTQTPRHLVMGMTNKKSLKCEQHLGHNAMYWYKQSAKKPLELMFVYNFKEQTENNSVPSRFSPECPNSSHLFLHLHTLQPEDSALYLCASSQVGTSGRGGELFFGEGSRLTVL
Turning to B13, the binding result in test [6] is recorded as “recognises”.

B14: TCR_A0003 (TCR, V domains shown)
Valpha: AQSVSQHNHHVILSEAASLELGCNYSYGGTVNLFWYVQYPGQHLQLLLKYFSGDPLVKGIKGFEAEFIKSKFSFNLRKPSVQWSDTAEYFCAGGAAGNKLTFGGGTRVLVKP
Vbeta: EAGVAQSPRYKIIEKRQSVAFWCNPISGHATLYWYQQILGQGPKLLIQFQNNGVVDDSQLPKDRFSAERLKGVDSTLKIQPAKLEDSAVYLCASSSPLGGFAGANVLTFGAGSRLTVL
With B14, the binding result in test [1] is “recognises”.

These data come from US20250262242A1 (published 2025).
